According to US7662584, “Increased production of secreted proteins by recombinant eukaryotic cells” (Danisco US Inc.):

T1: HAC1-malE fusion (HAC1 DNA binding domain and leucine zipper fragment) (Trichoderma reesei, UniProt Q8TFF3 SEQ:84-203)
T1 chain: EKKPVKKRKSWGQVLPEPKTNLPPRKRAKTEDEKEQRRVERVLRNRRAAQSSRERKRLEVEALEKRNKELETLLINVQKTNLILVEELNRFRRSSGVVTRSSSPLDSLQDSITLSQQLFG

B1: pdiUPREI+II (dsDNA)
DNA 1: CGGCTGAACCAGCGCGGCAGCCAGATGTGGCCAAAGGG
DNA 2: CCCTTTGGCCACATCTGGCTGCCGCGCTGGTTCAGCCG
B2: pdiUPREII (dsDNA)
DNA 1: GGATCTTGCATAGCCAGATGTGGCCTCGATTGACT
DNA 2: AGTCAATCGAGGCCACATCTGGCTATGCAAGATCC
B3: pdiUPREI (dsDNA)
DNA 1: GGTACCTGCTAACCAGCGCGGCATGATTCAAC
DNA 2: GTTGAATCATGCCGCGCTGGTTAGCAGGTACC
B4: bipUPREII (dsDNA)
DNA 1: GGGCGTGGAGAAGCGAGAAGTGGCCTCTTCTTCTCC
DNA 2: GGAGAAGAAGAGGCCACTTCTCGCTTCTCCACGCCC
B5: bipUPREI (dsDNA)
DNA 1: GGATTAGAAAACGCCAACGTGTCCATAACGGTC
DNA 2: GACCGTTATGGACACGTTGGCGTTTTCTAATCC

Assays:
Settings in all cases: tags: N-terminal MBP (malE), pMAL-p2X, E. coli; label: 32P-dCTP Klenow fill-in
[1] = biological target: T1, HAC1-malE fusion (HAC1 DNA binding …); assay: EMSA; competed by excess unlabelled oligo; 10 mM MgCl2, 50 mM KCl, pH 6.9, poly(dIdC), 25 C
Protocol: (§1) FIG. 16 depicts bandshift experiments, where the binding of the malE-HAC1 fusion protein to the putative UPR element sequences found in *T. reesei* pdi1 and bip1 promoters was tested. The oligonucleotides used in the binding reactions are shown on the top. Lanes 1, 12 and 16, no protein; lanes 2, 4-7, 8-11. 13-15 and 17-19. malE-HAC1 fusion protein; lane 3. malE protein alone. The binding was competed with unlabelled oligonucleotides on lanes 5 (20× excess); lanes 6, 10, 14 and 18 (50× excess) and lanes 7, 11, 15, and 19 (200× excess). Alignment of the UPR element sequences that bind the HAC1-malE protein is shown below wherein the sequence of pdiUPREII is set forth in SEQ ID No: 61, the sequence of bipUPREI is set forth in SEQ ID No. 62, and the sequence of bipUPREII is set forth in SEQ ID No. 63.
(§2) The oligonucleotides used in binding reactions were annealed in the concentration of […] in 50 mM Tris, pH 8.0, 10 mM MgCl_2, 1 mM spermidine and 5 mM DTT by heating them at 65° C. for 10 minutes and letting them cool down to room temperature during 2 hours. The oligonucleotides were labelled by incubating 100 ng of the annealed oligonucleotide in 10 mM Tris, pH 8.0, 5 mM MgCl_2 with 20 μCi of ^32P-dCTP and 2.5 U Klenow polymerase (Boehringer Mannheim) at 37° C. for 30 minutes. […]

[2] = biological target: T1, HAC1-malE fusion (HAC1 DNA binding …); assay: EMSA; specific binding; 10 mM MgCl2, 50 mM KCl, pH 6.9, poly(dIdC), 25 C
Protocol: as §1
The oligonucleotides used in binding reactions were annealed in the concentration of […] in 50 mM Tris, pH 8.0, 10 mM MgCl_2, 1 mM spermidine and 5 mM DTT by heating them at 65° C. for 10 minutes and letting them cool down to room temperature during 2 hours. The oligonucleotides were labelled by incubating 100 ng of the annealed oligonucleotide in 10 mM Tris, pH 8.0, 5 mM MgCl_2 with 20 μCi of ^32P-dCTP and 2.5 U Klenow polymerase (Boehringer Mannheim) at 37° C. for 30 minutes. The binding reactions between the oligonucleotides having the putative UPR elements and the proteins were carried out with 0.5-2 μg of the HAC1-malE fusion protein or 2 μg of the malE protein and 1 ng of the annealed and labelled oligonucleotide in a mixture containing 20 mM HEPES, pH 6.9, 50 mM KCl, 10 mM MgCl_2, 0.25 mM EDTA, 0.5 mM DTT, 2% Ficoll, 5% glycerol and 100 μg/ml poly(dIdC) DNA. The competing oligonucleotides were used in 20-200 times excess of the labelled oligonucleotide. The binding eaction mixtures were incubated for 30 minutes at 25° C. and run in a 5% polyacrylamide gel with 10% glycerol in 12.5 mM Tris-borate, pH 8.3, 0.6 mM EDTA for three hours. The gel was dried on a filter paper and exposed onto an X-ray film.

[3] = biological target: T1, HAC1-malE fusion (HAC1 DNA binding …); assay: EMSA; no binding at all; 10 mM MgCl2, 50 mM KCl, pH 6.9, poly(dIdC), 25 C
Protocol: as §1, §2

Row | Binder | binding result [2] | also measured
1 | B1 |  | binding result [1]: binds
2 | B2 | binds | 
3 | B3 |  | binding result [3]: no binding
4 | B4 | binds | 
5 | B5 | binds | 
